This passage reports EC50 of 5C4 neutralisation of mKate-RSV A2 K201N-mutated virus on HEp-2 cells (viral F without DS-Cav1; antibody format not given) results from PMC5707411.

This test concerns the target full-length RSV F A2 DS-Cav1 K201N (A-chimera construct) (respiratory syncytial virus subtype A, strain A2).

B1: 5C4 IgG (antibody, V domains shown)
VH: EVQLQQSGAELVKPGASVKLSCTASGFNIKDTFFHWVKQRPEQGLEWIGRIDPADGHTKYDPKFQGKATITADTSSNTAFLQLSSLTSVDTAVYYCATTITAVVPTPYNAMDYWGQGTSVTVSS
VL: DIVLTQSPASLAVSLGQRTTISCRASESVDSFDNSFIHWYQQKPGQPPKLLIFLASSLESGVPARFSGSGSRTDFTLTIDPVEADDAATYYCQQSNEDPFTFGSGTKLEIK
Molecule B1 yielded an EC50 of 5C4 neutralisation of mKate-RSV A2 K201N-mutated virus on HEp-2 cells (viral F without DS-Cav1; antibody format not given) of 0.41 µg/mL.
